Test results published in paper PMC11825297.

Molecular target: GST-tagged actin-binding domain of melanophilin (GST-Mlph-ABD), ATTO-488-labeled (UniProt Q91V27)
Test: MST; ATTO-488-labeled GST-Mlph-ABD (diluted to 40 nM in MST buffer: 50 mM Tris-HCl pH 7.8, 100 mM NaCl, 10 mM MgCl2, 0.05% Tween-20) mixed 1:1 with a 16-step two-fold dilution series of the His-tagged Myo5a tail from 40 uM in His-tag protein dialysis buffer; Monolith NT.115; three repetitions

UniProt Q91V27, sequence (Q91V27 401-590): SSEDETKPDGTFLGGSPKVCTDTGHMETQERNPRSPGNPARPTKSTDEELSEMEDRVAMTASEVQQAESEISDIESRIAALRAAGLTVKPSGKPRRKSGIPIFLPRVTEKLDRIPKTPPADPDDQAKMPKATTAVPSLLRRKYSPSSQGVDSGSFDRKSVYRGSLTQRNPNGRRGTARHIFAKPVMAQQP

“His-tagged middle tail domain of myosin-5a (His-Myo5a-MTD) (from UniProt Q99104 1-1853) (domain or fragment)” gave a Kd of 562 nM.
